Experimental data taken from patent US20240301053A1, “COMBINATION THERAPIES WITH VENETOCLAX AND TIM-3 INHIBITORS” (Novartis AG, priority 2019, published 2024).

Molecular target: T1, TIM-3/Galectin-9 interaction (Homo sapiens, UniProt Q8TDQ0)
T1 construct: TIM-3 fusion protein (R&D Systems) was coated on a standard MesoScale 96 well plate; purchased R&D Systems
Test: plate-based (MesoScale) TIM-3/Galectin-9 competition assay
Type: binding
Conditions: TIM-3 fusion protein coated at 2 μg/ml; labeled Galectin-9 100 nM; serial dilutions
Description: TIM-3 fusion protein (R&D Systems) was coated on a standard MesoScale 96 well plate (Meso Scale Discovery) at 2 μg/ml in PBS (Phosphate Buffered Saline) and incubated for six hours at room temperature. The plate was washed three times with PBST (PBS buffer containing 0.05% Tween-20) and blocked with PBS containing 5% Probumin (Millipore) overnight at 4° C. After incubation, the plate was washed three times with PBST and unlabeled antibody (F38-2E2 (BioLegend); MBG453; MBG453 F(ab′)2; MBG453 F(ab); or control recombinant human Galectin-9 protein) diluted in Assay Diluent (2% Probumin, 0.1% Tween-20, 0.1% Triton X-100 (Sigma) with 10% StabilGuard (SurModics)), was added in serial dilutions to the plate and incubated for one hour on an orbital shaker at room temperature. The plate was then washed three times with PBST, and Galectin-9 labeled with MSD SULFOTag (Meso Scale Discovery) as per manufacturer's instructions, diluted in Assay Diluent to 100 nM, was added to the plate for one hour at room temperature on an orbital shaker. The plate was again washed three times with PBST, and Read Buffer T (1×) was added to the plate. The plate was read on MA600 Imager, and competition was assessed as a measure of the ability of the antibody to block Ga19-SULFOTag signal to TIM-3 receptor.

ability to block Gal9-SULFOTag signal to TIM-3 receptor (interaction between TIM-3 and Galectin-9): did not
B1: control Galectin-9 protein: control recombinant human Galectin-9 protein, unlabeled (protein)
chain: AFSGSQAPYLSPAVPFSGTIQGGLQDGLQITVNGTVLSSSGTRFAVNFQTGFSGNDIAFHFNPRFEDGGYVVCNTRQNGSWGPEERKTHMPFQKGMPFDLCFLVQSSDFKVMVNGILFVQYFHRVPFHRVDTISVNGSVQLSYISFQPPGVWPANPAPITQTVIHTVQSAPGQMFSTPAIPPMMYPHPAYPMPFITTILGGLYPSKSILLSGTVLPSAQRFHINLCSGNHIAFHLNPRFDENAVVRNTQIDNSWGSEERSLPRKMPFVRGQSFSVWILCEAHCLKVAVDGQHLFEYYHRLRNLPTINRLEVGGDIQLTHVQT
